The values below come from patent US20230381336A1 (SHANGHAI MIRACOGEN, published 2023).

Assay [1] deals with T1, human Claudin 18.2 (human, UniProt P56856-2 1-261).
T1 sequence (looked up): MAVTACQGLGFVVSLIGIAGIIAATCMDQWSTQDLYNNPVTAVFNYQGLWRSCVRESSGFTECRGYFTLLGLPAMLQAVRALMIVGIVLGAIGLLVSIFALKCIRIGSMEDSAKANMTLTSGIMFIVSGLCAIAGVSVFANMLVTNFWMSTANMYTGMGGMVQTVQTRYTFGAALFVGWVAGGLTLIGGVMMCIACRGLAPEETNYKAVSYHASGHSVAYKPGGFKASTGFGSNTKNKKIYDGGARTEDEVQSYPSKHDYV
As to the kind of experiment: cell-based or functional assay.

The target in assay [2] is T2, human Claudin 18.1 (human, UniProt P56856 1-261).
T2 construct: whole, on cells; Splice variant used as specificity control
T2 sequence (looked up): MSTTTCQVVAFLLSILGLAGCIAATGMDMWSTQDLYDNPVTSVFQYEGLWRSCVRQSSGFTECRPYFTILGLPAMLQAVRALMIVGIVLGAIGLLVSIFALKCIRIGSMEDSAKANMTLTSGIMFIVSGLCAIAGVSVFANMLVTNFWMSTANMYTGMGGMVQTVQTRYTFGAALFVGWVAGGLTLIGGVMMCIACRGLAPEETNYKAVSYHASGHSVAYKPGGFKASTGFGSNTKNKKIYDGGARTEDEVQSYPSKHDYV
As to the kind of experiment: flow cytometry (iQue) on HEK293 cells stably expressing human Claudin 18.1. Here is the method: The cells were gently tapped, and 50 μL of serially diluted antibodies were added to each well (antibody concentration starting from 100 nM, 5-fold dilution for 8 gradients), and incubated at 4° C. for 1 hour. After the incubation, 140μL of 0.5% BSA was added to each well to wash 3 times, and 30 μL/well of secondary antibody AlexaFluro647 anti-human IgG (Jackson ImmunoResearch, Cat: 109-606-170) was added, and incubated at 4° C. for 40 minutes. After the incubation, 140 μL of 0.5% BSA was added to each well to wash 3 times, and finally each well was resuspended in 50 μL of PBS for detection by flow cytometry (iQue Screener).

B1: CM311-18D10-VH3/VL2-ADC (other)
VH: QVQLQESGPGLVKPSETLSLTCTVSGGSISSNYAWNWIRQPPGKGLEWIGYINYSGNTNYNPSLKSRVTISRDTSKNQFSLKLSSVTAADTAVYYCATSYYGNSFIYWGQGTLVTVSS
VL: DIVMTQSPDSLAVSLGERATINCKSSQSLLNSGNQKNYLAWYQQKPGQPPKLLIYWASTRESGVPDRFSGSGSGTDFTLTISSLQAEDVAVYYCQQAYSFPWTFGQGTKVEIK
modifications: MC-vc-PAB-MMAE coupled to free cysteine thiols of the DTT-reduced antibody; average DAR 3.5 per antibody; sites not stated
Regarding B1, in assay [1], the “Mean IC50 of cell killing, LT-1C8 cells (KATO stable cell line, medium Claudin 18.2 expression), 96 h, CCK-8 or Presto-Blue” value (“Mean IC50 of cell killing, LT-1C8 cells” below) was 0.52 µg/mL; the “Mean IC50 of cell killing, LT-M11 cells (KATO stable cell line, high Claudin 18.2 expression), 96 h, CCK-8 or Presto-Blue” value (shortened to “Mean IC50 of cell killing, LT-M11 cells”) came to 0.2 µg/mL; the “Mean IC50 of cell killing, row without a cell line label printed under LT-M11 (taken as a second LT-M11 series)” value came out at 0.132 µg/mL.

B2: CM311-18D10-VH6/VL2-ADC (other)
VH: QVQLQESGPGLVKPSETLSLTCTVSGGSISSNYAWNWIRQPPGKGLEWIGYIYYSGNTNYNPSLKSRVTISRDTSKNQFSLKLSSVTAADTAVYYCATSYYGNSFIYWGQGTLVTVSS
VL: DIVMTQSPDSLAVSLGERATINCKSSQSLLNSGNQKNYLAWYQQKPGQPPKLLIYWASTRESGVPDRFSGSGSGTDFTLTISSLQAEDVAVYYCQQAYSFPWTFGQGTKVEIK
modifications: MC-vc-PAB-MMAE coupled to free cysteine thiols of the DTT-reduced antibody; average DAR 3.4 per antibody; sites not stated
Turning to B2, in assay [1], the “Mean IC50 of cell killing, LT-1C8 cells” value is 0.615 µg/mL; the “Mean IC50 of cell killing, LT-M11 cells” value is 0.35 µg/mL; the “Mean IC50 of cell killing, row without a cell line label printed under LT-M11 (taken as a second LT-M11 series)” value came to 0.147 µg/mL.

B3: 18D10 chimera (antibody, V domains shown)
VH: DVQLQESGPGLVKPSQSLSLTCTVTGYSITSNYAWNWIRQFPGNKLEWMGYINYSGNTNYNPSLKSRISITRDTSKNQFFLQLNSVTAEDTATYYCATSYYGNSFIYWGQGTLVTVSA
VL: DIVMTQSPSSLTVTAGEKVTMSCKSSQSLLNSGNQKNYLTWYQQKPGQPPKLLIYWASTRESGVPDRFTGSGSGTDFTLTISSVQAEDLAVYYCQNAYSFPWTFGGGTKLEIK
notes: also called Clone 18D10; 18D10 mVH / 18D10 mVL
Consider B3, for which, in assay [2], the binding result is “no binding”.

B4: 18A9 chimera (antibody, V domains shown)
VH: QVQLQQSGREVVRPGTSVKVSCKPSGYAFTNYLIDWVKQRPGQGLEWIGGINPGSGDTVYNEKFKAKATLTADKSSMTANMQLSSLTSDDSAVYFCARRVRGNSFDSWGQGTLVTVSA
VL: DIVMSQSPSSLTVTAGEKVTMSCKSSQSLLNSGNQKNYLTWYQQKPGQPPKLLIYWASTRESGVPDRFTGSGSGKDFTLTISSVQAEDLALYYCQNNYFYPLTFGAGTKLELK
notes: also called Clone 18A9; 18A9 mVH / 18A9 mVL
Turning to B4, the binding result in assay [2] is recorded as “no binding”.

B5: CM311-18A9-VH7/VL2-ADC (other)
VH: QVQLVQSGAEVKKPGASVKVSCKPSGYTFTNYLIDWVRQAPGQGLEWMGGINPGSGDTVYNEKFQGRVTLTADTSTSTVYMELSSLRSEDTAVYFCARRVRGNSFDSWGQGTLVTVSS
VL: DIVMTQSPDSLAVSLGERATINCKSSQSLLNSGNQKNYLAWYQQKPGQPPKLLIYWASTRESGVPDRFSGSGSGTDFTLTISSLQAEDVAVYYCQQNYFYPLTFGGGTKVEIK
modifications: MC-vc-PAB-MMAE coupled to free cysteine thiols of the DTT-reduced antibody; average DAR 3.0 per antibody; sites not stated
On to B5, for which, in assay [1], the “Mean IC50 of cell killing, LT-1C8 cells” value was 0.111 µg/mL; the “Mean IC50 of cell killing, LT-M11 cells” value was 0.155 µg/mL; the “Mean IC50 of cell killing, row without a cell line label printed under LT-M11 (taken as a second LT-M11 series)” value was 0.0512 µg/mL.
